Residue numbers refer to the chain shown, from its start.
What was measured:
[1] = biological target: T1, Cytochrome c oxidase (Bos taurus, UniProt P68530); assay: analytical ultracentrifugation
T1 chain: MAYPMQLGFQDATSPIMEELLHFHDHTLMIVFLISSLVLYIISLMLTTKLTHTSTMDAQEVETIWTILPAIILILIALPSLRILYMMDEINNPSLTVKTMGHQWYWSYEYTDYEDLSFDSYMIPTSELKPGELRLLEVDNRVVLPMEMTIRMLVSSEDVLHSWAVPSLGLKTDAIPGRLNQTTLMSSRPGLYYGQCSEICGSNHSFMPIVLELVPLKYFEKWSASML

[2] = biological target: T2, Cytochrome c oxidase (Bos taurus, UniProt P68530); assay: analytical ultracentrifugation
T2 chain: T1 chain with E89T

[3] = biological target: T1, Cytochrome c oxidase; assay: laser flash photolysis

B1: Cytochrome c (protein)
chain: not shown
- Kd [1]: 4.7 µM
- Kd [2]: 2.1 µM

B2: Cytochrome c (protein)
chain: not shown
- Kd [1]: 28.4 µM

B3: Ru-39-Cytochrome c (protein)
chain: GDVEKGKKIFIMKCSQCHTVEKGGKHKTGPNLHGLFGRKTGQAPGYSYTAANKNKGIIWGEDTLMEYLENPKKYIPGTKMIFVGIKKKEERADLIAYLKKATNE
modifications: (dimethylbipyridine)(bisbipyridine)ruthenium at Cys-39
- Kd [3]: 8 µM
